Assay results taken from article PMC10097392, “Ligand Installation to Polymeric Micelles for Pediatric Brain Tumor Targeting” (Polymers, 2023).
Blank lines part the entries; values can stand above or below the binder they belong to.

Molecular target: T1, CD276/B7-H3 (Homo sapiens (endogenous on DAOY …, UniProt Q5ZPR3))
T1 construct: CD276/B7-H3, transmembrane protein, endogenous on medulloblastoma patient-derived DAOY cells; source: endogenous, on GFP-expressing DAOY (HTB-186) medulloblastoma cells
Test: immunostaining of cells or tissue; inhibition assay on live GFP-expressing DAOY cells: CD276Ab at 0, 12.5, 25.0, 50.0 and 100 ug/mL for 1 h at 37 °C, washed, then DBCO-CD276Ab-Cy5 (30.0 ug/mL) for 1 h at 37 °C; Cy5 fluorescence within cells by confocal laser scanning microscopy
Settings: one partner purified

T1 sequence (Q5ZPR3 29-534): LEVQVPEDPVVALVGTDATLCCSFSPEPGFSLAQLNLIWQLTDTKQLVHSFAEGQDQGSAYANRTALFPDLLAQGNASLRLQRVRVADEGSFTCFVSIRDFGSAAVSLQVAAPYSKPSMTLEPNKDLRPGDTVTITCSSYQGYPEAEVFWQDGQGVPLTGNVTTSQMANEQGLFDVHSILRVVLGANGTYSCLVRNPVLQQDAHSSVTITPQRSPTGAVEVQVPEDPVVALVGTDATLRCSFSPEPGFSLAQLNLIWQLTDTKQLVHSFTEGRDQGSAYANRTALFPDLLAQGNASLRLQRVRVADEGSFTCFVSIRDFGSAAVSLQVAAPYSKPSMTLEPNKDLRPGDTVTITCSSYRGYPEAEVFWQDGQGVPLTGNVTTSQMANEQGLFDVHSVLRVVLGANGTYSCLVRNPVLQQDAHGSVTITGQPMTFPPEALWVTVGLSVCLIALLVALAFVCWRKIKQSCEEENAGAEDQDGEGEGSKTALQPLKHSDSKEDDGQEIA

binding result: binds
B1: Cy5-labeled DBCO-CD276Ab (DBCO-CD276Ab-Cy5) (antibody, V domains shown)
VH: QVQLQQSGAELVKPGASVKLSCKASGYTFTNYDINWVRQRPEQGLEWIGWIFPGDGSTQYNEKFKGKATLTTDTSSSTAYMQLSRLTSEDSAVYFCARQTTATWFAYWGQGTLVTVSA
VL: DIVMTQSPATLSVTPGDRVSLSCRASQSISDYLHWYQQKSHESPRLLIKYASQSISGIPSRFSGSGSGSDFTLSINSVEPEDVGVYYCQNGHSFPLTFGAGTKLELK
notes: as in m1: constant region of the IgG heavy chain as far as it is not in PDB 5CMA; m1 chemically modified: DBCO-PEG4-NHS fed at 0.25 eq. to primary amines, then Cy5-NHS ester; also called the fabricated antibody; source: CD276Ab from Expi CHO cells, conjugated with DBCO-PEG4-NHS and Cy5-NHS ester, purified (Protein G HP SpinTrap)

binding result: binds
B2: anti-CD276 antibody (CD276Ab), 8H9 antibody, IgG (antibody, V domains shown)
VH: B1 VH
VL: B1 VL
notes: heavy chain of 8H9; constant region of the IgG heavy chain as far as it is not in PDB 5CMA; light chain of 8H9; IgG; the fabrication scheme is said to be in the Supplementary Materials; also called 'as prepared' CD276Ab; source: Expi CHO cells, co-transfected with heavy and light chain vectors, purified from supernatant (rProtein A Sepharose, SEC)
